Measured values taken from PMC5729044.

Target: 1wa3-wt, the wild-type trimeric aldolase from which I3-01 was derived
Experiment: SEC

1wa3-wt, the wild-type trimeric aldolase from which I3-01 was derived (enzyme)
stoichiometry N: 3
